# *1 amine or outer side, *2 acyl side, *3 side chain or, on linkers, in order; H or OH if unused. [ ]: non-standard residue; d: D form. TyrEtNAc = L-tyrosine O-ethyl acetamide, (S)-3-(4-(2-acetamidoethoxy)phenyl)-2-aminopropanoic acid, CC(=O)NCCOc1ccc(C[C@H](N[*:1])C(=O)[*:2])cc1; 3AzaPhe4AcPip = (S)-3-(6-(4-acetylpiperazin-1-yl)pyridin-3-yl)-2-aminopropanoic acid, CC(=O)N1CCN(c2ccc(C[C@H](N[*:1])C(=O)[*:2])cn2)CC1; 3Pal4Ph4CO2H = (S)-4-(5-(2-amino-2-carboxyethyl)pyridin-2-yl)benzoic acid, O=C([C@H](Cc1ccc(-c2ccc(C(=O)[*:3])cc2)nc1)N[*:1])[*:2]; hF3CF3 = (S)-2-amino-4-(3-(trifluoromethyl)phenyl)butanoic acid, O=C([C@H](CCc1cccc(C(F)(F)F)c1)N[*:1])[*:2]; hF2CF3 = (S)-2-amino-4-(2-(trifluoromethyl)phenyl)butanoic acid, O=C([C@H](CCc1ccccc1C(F)(F)F)N[*:1])[*:2]; Pro(trans-4-NH2) = O=C([C@@H]1C[C@@H](N[*:3])CN1[*:1])[*:2]; Bip(4'-COOH) = N[C@@H](Cc1ccc(-c2ccc(C(=O)O)cc2)cc1)C(=O)O; 1Nal(3S-Me) = C[C@@H](c1cccc2ccccc12)[C@H](N)C(=O)O; hPhe(4-CF3) = N[C@@H](CCc1ccc(C(F)(F)F)cc1)C(=O)O; Phe(4-COOH) = N[C@@H](Cc1ccc(C(=O)O)cc1)C(=O)O; h3Pal(5-CN) = N#Cc1cncc(CC[C@H](N)C(=O)O)c1; hTyr = N[C@@H](CCc1ccc(O)cc1)C(=O)O; 4Pal = N[C@@H](Cc1ccncc1)C(=O)O; dDab = NCC[C@@H](N)C(=O)O; dNMeA = CN[C@H](C)C(=O)O; Dab = NCC[C@H](N)C(=O)O; Dap = NC[C@H](N)C(=O)O
# B1: SEQ ID NO: 1 (peptide)
# peptide: cyclo([3AzaPhe4AcPip]W[Phe(4-COOH)]G[Pro(trans-4-NH2)][1Nal(3S-Me)]D[dNMeA]G[Bip(4'-COOH)][4Pal][Dap][dA][h3Pal(5-CN)])
# SMILES: CC(=O)N1CCN(c2ccc(C[C@@H]3NC(=O)[C@H](CCc4cncc(C#N)c4)NC(=O)[C@@H](C)NC(=O)[C@H](CN)NC(=O)[C@H](Cc4ccncc4)NC(=O)[C@H](Cc4ccc(-c5ccc(C(=O)O)cc5)cc4)NC(=O)CNC(=O)[C@@H](C)N(C)C(=O)[C@H](CC(=O)O)NC(=O)[C@H]([C@@H](C)c4cccc5ccccc45)NC(=O)[C@@H]4C[C@@H](N)CN4C(=O)CNC(=O)[C@H](Cc4ccc(C(=O)O)cc4)NC(=O)[C@H](Cc4c[nH]c5ccccc45)NC3=O)cn2)CC1
# B2: SEQ ID NO: 10 (peptide)
# peptide: cyclo([3Pal4Ph4CO2H]W[Phe(4-COOH)]G[Pro(trans-4-NH2)][1Nal(3S-Me)]D[dNMeA]G[3Pal4Ph4CO2H]W[Dap][dA][hTyr])
# SMILES: C[C@@H]1C(=O)NCC(=O)N[C@@H](Cc2ccc(-c3ccc(C(=O)O)cc3)nc2)C(=O)N[C@@H](Cc2c[nH]c3ccccc23)C(=O)N[C@@H](CN)C(=O)N[C@H](C)C(=O)N[C@@H](CCc2ccc(O)cc2)C(=O)N[C@@H](Cc2ccc(-c3ccc(C(=O)O)cc3)nc2)C(=O)N[C@@H](Cc2c[nH]c3ccccc23)C(=O)N[C@@H](Cc2ccc(C(=O)O)cc2)C(=O)NCC(=O)N2C[C@H](N)C[C@H]2C(=O)N[C@@H]([C@@H](C)c2cccc3ccccc23)C(=O)N[C@@H](CC(=O)O)C(=O)N1C
# B3: SEQ ID NO: 100 (peptide)
# peptide: cyclo([TyrEtNAc]W[Phe(4-COOH)]G[Pro(trans-4-NH2)][1Nal(3S-Me)]D[dNMeA]G[Bip(4'-COOH)][4Pal][Dab][dA][hPhe(4-CF3)])
# SMILES: CC(=O)NCCOc1ccc(C[C@@H]2NC(=O)[C@H](CCc3ccc(C(F)(F)F)cc3)NC(=O)[C@@H](C)NC(=O)[C@H](CCN)NC(=O)[C@H](Cc3ccncc3)NC(=O)[C@H](Cc3ccc(-c4ccc(C(=O)O)cc4)cc3)NC(=O)CNC(=O)[C@@H](C)N(C)C(=O)[C@H](CC(=O)O)NC(=O)[C@H]([C@@H](C)c3cccc4ccccc34)NC(=O)[C@@H]3C[C@@H](N)CN3C(=O)CNC(=O)[C@H](Cc3ccc(C(=O)O)cc3)NC(=O)[C@H](Cc3c[nH]c4ccccc34)NC2=O)cc1
# B4: SEQ ID NO: 101 (peptide)
# peptide: cyclo([TyrEtNAc]W[Phe(4-COOH)]G[Pro(trans-4-NH2)][1Nal(3S-Me)]D[dNMeA]G[Bip(4'-COOH)][4Pal][Dab][dA][hTyr])
# SMILES: CC(=O)NCCOc1ccc(C[C@@H]2NC(=O)[C@H](CCc3ccc(O)cc3)NC(=O)[C@@H](C)NC(=O)[C@H](CCN)NC(=O)[C@H](Cc3ccncc3)NC(=O)[C@H](Cc3ccc(-c4ccc(C(=O)O)cc4)cc3)NC(=O)CNC(=O)[C@@H](C)N(C)C(=O)[C@H](CC(=O)O)NC(=O)[C@H]([C@@H](C)c3cccc4ccccc34)NC(=O)[C@@H]3C[C@@H](N)CN3C(=O)CNC(=O)[C@H](Cc3ccc(C(=O)O)cc3)NC(=O)[C@H](Cc3c[nH]c4ccccc34)NC2=O)cc1
# B5: SEQ ID NO: 102 (peptide)
# peptide: cyclo([TyrEtNAc]W[Phe(4-COOH)]G[Pro(trans-4-NH2)][1Nal(3S-Me)]D[dNMeA]G[Bip(4'-COOH)][4Pal]G[dDab][h3Pal(5-CN)])
# SMILES: CC(=O)NCCOc1ccc(C[C@@H]2NC(=O)[C@H](CCc3cncc(C#N)c3)NC(=O)[C@@H](CCN)NC(=O)CNC(=O)[C@H](Cc3ccncc3)NC(=O)[C@H](Cc3ccc(-c4ccc(C(=O)O)cc4)cc3)NC(=O)CNC(=O)[C@@H](C)N(C)C(=O)[C@H](CC(=O)O)NC(=O)[C@H]([C@@H](C)c3cccc4ccccc34)NC(=O)[C@@H]3C[C@@H](N)CN3C(=O)CNC(=O)[C@H](Cc3ccc(C(=O)O)cc3)NC(=O)[C@H](Cc3c[nH]c4ccccc34)NC2=O)cc1
# B6: SEQ ID NO: 103 (peptide)
# peptide: cyclo([TyrEtNAc]W[Phe(4-COOH)]G[Pro(trans-4-NH2)][1Nal(3S-Me)]D[dNMeA]G[Bip(4'-COOH)][4Pal]S[dA][hF2CF3])
# SMILES: CC(=O)NCCOc1ccc(C[C@@H]2NC(=O)[C@H](CCc3ccccc3C(F)(F)F)NC(=O)[C@@H](C)NC(=O)[C@H](CO)NC(=O)[C@H](Cc3ccncc3)NC(=O)[C@H](Cc3ccc(-c4ccc(C(=O)O)cc4)cc3)NC(=O)CNC(=O)[C@@H](C)N(C)C(=O)[C@H](CC(=O)O)NC(=O)[C@H]([C@@H](C)c3cccc4ccccc34)NC(=O)[C@@H]3C[C@@H](N)CN3C(=O)CNC(=O)[C@H](Cc3ccc(C(=O)O)cc3)NC(=O)[C@H](Cc3c[nH]c4ccccc34)NC2=O)cc1
# B7: SEQ ID NO: 104 (peptide)
# peptide: cyclo([TyrEtNAc]W[Phe(4-COOH)]G[Pro(trans-4-NH2)][1Nal(3S-Me)]D[dNMeA]G[Bip(4'-COOH)][4Pal]S[dA][hF3CF3])
# SMILES: CC(=O)NCCOc1ccc(C[C@@H]2NC(=O)[C@H](CCc3cccc(C(F)(F)F)c3)NC(=O)[C@@H](C)NC(=O)[C@H](CO)NC(=O)[C@H](Cc3ccncc3)NC(=O)[C@H](Cc3ccc(-c4ccc(C(=O)O)cc4)cc3)NC(=O)CNC(=O)[C@@H](C)N(C)C(=O)[C@H](CC(=O)O)NC(=O)[C@H]([C@@H](C)c3cccc4ccccc34)NC(=O)[C@@H]3C[C@@H](N)CN3C(=O)CNC(=O)[C@H](Cc3ccc(C(=O)O)cc3)NC(=O)[C@H](Cc3c[nH]c4ccccc34)NC2=O)cc1
# Target: Recombinant human IL-1β (BioLegend 579404) (human, UniProt P01584 117-269)
# Assay: cell-based or functional assay
row,Binder,MRC5 IC50
1,B1,0.0365 nM
2,B2,0.256 nM
3,B3,0.274 nM
4,B4,0.247 nM
5,B5,0.0421 nM
6,B6,0.066 nM
7,B7,0.041 nM

# Source: patent US20230406885A1, “CYCLIC PEPTIDES FOR TRAPPING INTERLEUKIN-1 BETA” (MERCK SHARP & DOHME LLC, priority 2022, published 2023)
